According to article PMC4580590:

Columns and labels:
[1] = target: D-lactate dehydrogenase from Sporolactobacillus inulinus CASD (DLDH744) (Sporolactobacillus inulinus CASD); assay: crystal structure; DLDH744 in complex with NAD+; molecular replacement, refined at 3.15 Å; homo-dimer in one asymmetric unit
[2] = substrate: CC(=O)C(=O)O; assay: purified protein; format: biochemical, Sporolactobacillus inulinus; settings: 100 mM PBS pH 5.5, 30°C, 0.2 mM NADH or NADPH (which one not told)
[3] = substrate: N[C@@H](CCC(=O)O)C(=O)O; assay: purified protein; format: biochemical, Sporolactobacillus inulinus; settings: 100 mM PBS pH 5.5, 30°C, oxidative deamination, cofactor of the kinetic run not clearly told (0.2 mM NAD(P)+ in activity assay)
[4] = substrate: O=C(O)C(=O)Cc1ccccc1; assay: purified protein; format: biochemical, Sporolactobacillus inulinus; settings: 100 mM PBS pH 5.5, 30°C, 0.2 mM NADH or NADPH (which one not told)

Row | Molecule | stoichiometry N [1] | Km [2] [mM] | kcat [2] [s⁻¹] | Km [3] [mM] | kcat [3] [s⁻¹] | Km [4] [mM]
1 | D-lactate dehydrogenase from Sporolactobacillus inulinus CASD (DLDH744) (enzyme) | 2 |  |  |  |  | 
2 | DLDH744 (Sporolactobacillus inulinus CASD) (protein, full length, 335 residues, homodimer; vector pET-28a(+), E. coli BL21(DE3); purified) MKIIMFSVRDDEEAAIREWEKKTGVQVDINRLELDAETAQLTKGYDGIVIQQRSHISNPAVYETLQKNGLRQLTSRTAGYDMIDLEQASERGLVVTNVPAYSPNSVAELALTQTMRLIRNLPLFDARGAEQDFRWAGLMAREIRSLTVGIIGAGRIGGTVARLFKALGATVIANDIVERVELKDIVTYVSKEELLQAADVVTLHVPLMDSTTQLIDADALALMKNDAVLINASRGPVVDTDALIAALQNKQIAGAALDTLNGEEHFFNQDLCGKELPSEQLKVLRTLPNVLITPHIGFYTNKAVQNMVEISLNDVLAILKTGTSEHQLNKVAVEN |  | 3.4 ± 0.02 | 8.537 ± 0.127 | 5.7 ± 0.09 | 0.372 ± 0.0017 | 3.32 ± 0.08
